From US20240342199

Experiments:
[1] = biological target: Recombinant CypD Ser123→Ala mutant (UniProt P30405)
[2] = biological target: Recombinant GST-CypD (wild type) (UniProt P30405)
Recombinant GST-CypD (wild type), sequence (P30405 whole entry): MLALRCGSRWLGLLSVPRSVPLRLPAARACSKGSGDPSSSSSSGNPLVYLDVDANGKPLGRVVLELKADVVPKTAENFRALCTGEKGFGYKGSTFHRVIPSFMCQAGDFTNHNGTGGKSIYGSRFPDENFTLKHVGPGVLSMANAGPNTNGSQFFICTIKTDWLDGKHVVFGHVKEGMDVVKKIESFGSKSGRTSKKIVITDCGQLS

Recombinant CypD Ser123→Ala mutant, sequence (P30405 whole entry, looked up, change not shown): as the sequence (P30405 whole entry) above

active Akt1
kinase assay with recombinant proteins, autoradiography [1]: readily phosphorylated
kinase assay with recombinant proteins, autoradiography [2]: readily phosphorylated
